Source: the supplement of paper PMC10126150
± gives the standard deviation of the averaged measurements.

tested on: ATP; experiment: switch fluorescence ratio, 500 uM ATP over buffer (Cy3 cluster intensity, sum of 5 cycles each) (fold (ratio)); higher = stronger signal-on switching upon ATP binding; sequences stand for … in TCGTCGGCAGCGTCAGATGTGTATAAGAGACAGTTTTTTTTTTTTTTTTTTTTTTTTT…TC; conditions: aptamer strand: ATP DNA aptamer (quencher-CACCTGGGGGAGTATTGCGGAGGAAGG + anchor), 100 nM annealed; ATP concentration: 500 uM
Outline: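 After annealing to 100 nM quencher-labelled ATP aptamer, Cy3-labelled switching-strand clusters on a modified Illumina MiSeq flow-cell were imaged in selection buffer. A second image followed after 15 min with 500 uM ATP at 22 °C, and five such buffer/ATP cycles were done, each separated by NaOH stripping and re-annealing. The fluorescence ratio, averaged per switch-domain sequence, is summed target-cycle over summed buffer-cycle Cy3 intensity per cluster, with clusters outside 100-1000 RFU excluded.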
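Further: ATP exposure 15 min at 22 °C before imaging.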

Sequence	switch fluorescence ratio
GTTCATGCAG	0.993 ± 0.024
GTTCATTGTT	0.941 ± 0.017
GTTCCTGTGG	1.0156 ± 0.00081
GTTCGAAGGG	0.987 ± 0.013
GTTCGTTAGC	0.988 ± 0.004
GTTCTAAGTA	0.957 ± 0.0039
GTTCTCCTT	1.07 ± 0.1
GTTCTTTTTC	0.978 ± 0.019
GTTGAAGGCA	1.01 ± 0.022
GTTGAATCAT	0.992 ± 0.017
GTTGAATTTT	1.01 ± 0.032
GTTGACGGGT	0.971 ± 0.025
GTTGACGTTG	0.991 ± 0.054
GTTGAGGGTA	1 ± 0.034
GTTGAGTTGA	1.01 ± 0.021
GTTGAGTTTT	0.962 ± 0.03
GTTGATAACT	1.009 ± 0.0012
GTTGATAAGA	0.982 ± 0.035
GTTGATCAT	0.983 ± 0.015
GTTGATTTGG	0.981 ± 0.015
GTTGATTTTG	0.981 ± 0.042
GTTGCAAGAA	1.13 ± 0.06
GTTGCAATTT	1.16 ± 0.13
GTTGCAGGAA	0.992 ± 0.04
GTTGCAGTGT	1.02 ± 0.037

Sequence	switch fluorescence ratio
GTTGCGAAGG	0.983 ± 0.02
GTTGCGAGGT	0.9872 ± 0.004
GTTGGAAACT	1.04 ± 0.017
GTTGGAATGT	1.03 ± 0.018
GTTGGACAGA	1.03 ± 0.015
GTTGGACCAA	1.021 ± 0.0027
GTTGGAGGGG	0.985 ± 0.03
GTTGGAGGTG	1.06 ± 0.012
GTTGGAGGTT	0.9921 ± 0.0052
GTTGGAGTTA	0.976 ± 0.023
GTTGGATTGG	0.996 ± 0.019
GTTGGATTTC	1.01 ± 0.047
GTTGGCACTG	1.036 ± 0.0053
GTTGGCGAGT	1.01 ± 0.032
GTTGGCGGGC	0.997 ± 0.036
GTTGGGAGGG	0.985 ± 0.012
GTTGGGCGGA	0.993 ± 0.029
GTTGGGGATG	1.02 ± 0.026
GTTGGGGCGG	1.01 ± 0.057
GTTGGGGCTC	1.01 ± 0.04
GTTGGGGGGA	1 ± 0.033
GTTGGGGGTC	0.995 ± 0.011
GTTGGGTGGA	1.0356 ± 0.00032
GTTGGGTGGT	0.968 ± 0.01
GTTGGTACGT	1.01 ± 0.03

Sequence	switch fluorescence ratio
GTTGGTCTAT	0.9778 ± 0.0064
GTTGGTGAGT	0.989 ± 0.015
GTTGGTGCAC	0.98 ± 0.04
GTTGGTGGTG	0.9719 ± 0.0029
GTTGGTTAAT	0.966 ± 0.054
GTTGGTTGGA	0.983 ± 0.022
GTTGGTTTGT	0.986 ± 0.019
GTTGGTTTTC	0.99 ± 0.036
GTTGTAGACA	0.9847 ± 0.0048
GTTGTAGTCG	1.02 ± 0.038
GTTGTATGAT	0.9841 ± 0.0096
GTTGTATTTT	0.989 ± 0.022
GTTGTCCATA	1.015 ± 0.0029
GTTGTGATCT	0.989 ± 0.015
GTTGTGATGT	1 ± 0.013
GTTGTGCATA	1.02 ± 0.03
GTTGTGGGGT	0.976 ± 0.025
GTTGTGGTGT	1.02 ± 0.014
GTTGTGTGTA	0.9921 ± 0.0082
GTTGTGTGTG	0.974 ± 0.041
GTTGTTAACT	0.999 ± 0.048
GTTGTTATGG	0.988 ± 0.017
GTTGTTCGGT	1.01 ± 0.015
GTTGTTTAAT	1.006 ± 0.0081
GTTGTTTAGG	0.953 ± 0.023

Sequence	switch fluorescence ratio
GTTGTTTGCG	0.953 ± 0.023
GTTTAACTAT	1.015 ± 0.0038
GTTTAAGGAG	1.02 ± 0.066
GTTTAAGGCC	1.01 ± 0.043
GTTTAAGGCT	1.02 ± 0.088
GTTTAAGGGT	0.996 ± 0.055
GTTTAAGGTT	1.08 ± 0.2
GTTTACATTG	0.985 ± 0.042
GTTTACTATA	1.06 ± 0.049
GTTTAGACGT	1.01 ± 0.011
GTTTAGGGGT	1.03 ± 0.081
GTTTAGGTTT	1 ± 0.019
GTTTAGTC	0.976 ± 0.025
GTTTATATCC	1.02 ± 0.013
GTTTATCGCT	1.023 ± 0.0077
GTTTATGGAC	1.02 ± 0.011
GTTTATTCGC	0.998 ± 0.043
GTTTATTGAA	1.024 ± 0.0036
GTTTCACGGT	1.003 ± 0.0079
GTTTCAGTGT	0.972 ± 0.021
GTTTCATTTT	1.01 ± 0.012
GTTTCGCGAC	1.19 ± 0.026
GTTTCGGGGG	0.9895 ± 0.006
GTTTCTTCGA	0.973 ± 0.013
GTTTGAATAT	0.984 ± 0.047

Sequence	switch fluorescence ratio
GTTTGAGGGC	0.985 ± 0.052
GTTTGATCAG	0.941 ± 0.011
GTTTGCAACG	0.986 ± 0.021
GTTTGCCCTG	0.99 ± 0.022
GTTTGCTATT	0.992 ± 0.032
GTTTGCTGGT	1 ± 0.015
GTTTGGAGGC	1.01 ± 0.016
GTTTGGAGGG	0.979 ± 0.029
GTTTGGAGGT	0.992 ± 0.03
GTTTGGAGTG	1 ± 0.041
GTTTGGGGCA	0.994 ± 0.033
GTTTGGGGCG	1.01 ± 0.035
GTTTGGGGCT	0.989 ± 0.019
GTTTGGGGGT	1.04 ± 0.12
GTTTGGGTGC	1.072 ± 0.0055
GTTTGGGTTA	1.01 ± 0.016
GTTTGGTGC	1.02 ± 0.022
GTTTGTAACG	1.02 ± 0.015
GTTTGTACCT	1.13 ± 0.1
GTTTGTACGA	0.97621 ± 0.0002
GTTTGTTCGC	0.997 ± 0.076
GTTTGTTTTT	0.976 ± 0.032
GTTTTAAAAG	0.979 ± 0.01
GTTTTAAGCT	1.023 ± 0.0058
GTTTTACGTG	0.998 ± 0.024

Sequence	switch fluorescence ratio
GTTTTAGCGG	0.964 ± 0.027
GTTTTAGCTT	1 ± 0.011
GTTTTAGTGG	0.9867 ± 0.0089
GTTTTATGTA	1.025 ± 0.0069
GTTTTATTAT	1.017 ± 0.0017
GTTTTCGGCC	0.996 ± 0.029
GTTTTCGGCG	0.981 ± 0.035
GTTTTGAACA	0.983 ± 0.034
GTTTTGATCA	1 ± 0.016
GTTTTGCATA	1.01 ± 0.028
GTTTTGCCTC	0.984 ± 0.01
GTTTTGCGAA	0.9957 ± 0.0086
GTTTTGGCTT	0.983 ± 0.021
GTTTTGGGTG	1.09 ± 0.058
GTTTTGGGTT	0.977 ± 0.017
GTTTTGGTAT	1.01 ± 0.0052
GTTTTGGTG	1.08 ± 0.12
GTTTTGGTGG	0.998 ± 0.029
GTTTTGGTTA	1.01 ± 0.014
GTTTTGTTGA	1.02 ± 0.021
GTTTTGTTTT	0.9758 ± 0.0063
GTTTTTAAGA	1.03 ± 0.022
GTTTTTAGAC	1.03 ± 0.014
GTTTTTAGT	1.006 ± 0.0027
GTTTTTCCTT	0.998 ± 0.022

Sequence	switch fluorescence ratio
GTTTTTCGGT	0.981 ± 0.026
GTTTTTG	0.984 ± 0.031
GTTTTTGAAA	0.982 ± 0.037
GTTTTTGGTG	1 ± 0.018
GTTTTTTAAT	1.015 ± 0.0061
GTTTTTTCTT	0.971 ± 0.051
GTTTTTTGAA	0.9764 ± 0.0021
GTTTTTTGCC	1 ± 0.034
GTTTTTTGTA	0.994 ± 0.022
GTTTTTTTTA	0.989 ± 0.037
TAAAAAACCT	1.57 ± 0.39
TAAAAAATAC	1.67 ± 0.74
TAAAAAGTGG	0.976 ± 0.038
TAAAAAGTTT	0.997 ± 0.03
TAAAAATGTT	0.988 ± 0.021
TAAAACCCGC	1.05 ± 0.032
TAAAACCGGT	1.02 ± 0.018
TAAAAGAAGA	0.962 ± 0.016
TAAAAGACCG	1.077 ± 0.007
TAAAAGACGG	1.08 ± 0.056
TAAAAGCCTT	1.06 ± 0.043
TAAAAGCTTT	1.02 ± 0.029
TAAAAGGACC	1.09 ± 0.023
TAAAAGGGAT	1.01 ± 0.023
TAAAAGGTTG	0.989 ± 0.033

Sequence	switch fluorescence ratio
TAAAAGGTTT	1 ± 0.032
TAAAAGTATA	0.985 ± 0.018
TAAAAGTTTT	1.01 ± 0.011
TAAAATAAAG	0.993 ± 0.033
TAAAATACTT	1.11 ± 0.16
TAAAATATTT	1.05 ± 0.069
TAAAATCAGT	0.992 ± 0.046
TAAAATGCGT	0.99954 ± 0.00034
TAAAATGTGA	0.963 ± 0.021
TAAAATTATA	1.02 ± 0.021
TAAAATTTAG	1 ± 0.04
TAAAATTTAT	0.994 ± 0.028
TAAAATTTGT	1.01 ± 0.05
TAAACCGCGG	1.01 ± 0.059
TAAACGGGGA	0.986 ± 0.057
TAAACGGTCA	1.07 ± 0.022
TAAAGAAAAG	0.988 ± 0.011
TAAAGAAGAG	0.977 ± 0.03
TAAAGAGTAG	1 ± 0.042
TAAAGATGAT	1.01 ± 0.012
TAAAGCCGGT	1.009 ± 0.0023
TAAAGCGCGG	1.074 ± 0.0037
TAAAGGAAAA	1.01 ± 0.015
TAAAGGACGG	1.01 ± 0.038
TAAAGGAGGT	1.01 ± 0.046
